Results from publication PMC7888922.

Key:
[1] = target: WT sACE2_(2)-IgG1 (human) (UniProt Q9BYF1); experiment: BLI
[2] = target: sACE2_(2).v2.4-IgG1 (human) (UniProt Q9BYF1); experiment: BLI

| Substance | Kd [1] [nM] | koff [1] [s⁻¹] | kon [1] [M⁻¹ s⁻¹] | Kd [2] [nM] | koff [2] [s⁻¹] | kon [2] [M⁻¹ s⁻¹] |
| --- | --- | --- | --- | --- | --- | --- |
| RsSHC014 RBD-8h (domain or fragment) | 29 | 0.026 | 880000 | 1.3 | 0.002 | 1.6e+06 |
| SARS-CoV-2 RBD-8h (from UniProt P0DTC2 333-529) (domain or fragment) | – | – | – | 0.4 | 0.00028 | 660000 |
